Measured values reported in US20220340635A1 (ZHEJIANG DOER BIOLOGICS, published 2022).
Where a chain is given by its changes, count along the chain named.

B1: A352L1F8L5W (Fc fusion)
chain: HSQGTFTSDYSKYLDSQAAQDFVQWLLAGGPSSGAPPPSGGGGSGGGGSGGGGSAESKYGPPCPPCPAPEAAGGPSVFLFPPKPKDTLMISRTPEVTCVVVDVSQEDPEVQFNWYVDGVEVHNAKTKPREEQFASTYRVVSVLTVLHQDWLNGKEYKCKVSNKGLPSSIEKTISKAKGQPREPQVYTLPPSQEEMTKNQVSLTCLVKGFYPSDIAVEWESNGQPENNYKTTPPVLDSDGSFFLYSRLTVDKSRWQEGNVFSCSVMHEALHNHYTQKSLSLSLGGGGGAGGGGAGGGGAHPIPDSSPLLQFGGQVRQRYLYTDDAQQTEAHLEIREDGTVGGAADQSPESLLQLKALKPGVIQILGVKTSRFLCQRPDGALYGSLHFDPEACSFRELLLEDGYNVYQSEAHGLPLHLPGNKSPHRDPAPRGPARFLPLPGLPPALPEPPGILAPQPPDVGSSDPLSMVGPSQGRSPSYAS
B2: A352L1F8L5M1 (Fc fusion)
chain: B1 chain with L396R, P469G, A478E
B3: A382L1F8L5M1 (Fc fusion)
chain: B1 chain with A28D, L396R, P469G, A478E
B4: A137L1F8L5M3 (Fc fusion)
chain: YSEGTFTSDYSKYLDSQAAQDFVQWLLDGGPSSGAPPPSGGGGSGGGGSGGGGSAESKYGPPCPPCPAPEAAGGPSVFLFPPKPKDTLMISRTPEVTCVVVDVSQEDPEVQFNWYVDGVEVHNAKTKPREEQFASTYRVVSVLTVLHQDWLNGKEYKCKVSNKGLPSSIEKTISKAKGQPREPQVYTLPPSQEEMTKNQVSLTCLVKGFYPSDIAVEWESNGQPENNYKTTPPVLDSDGSFFLYSRLTVDKSRWQEGNVFSCSVMHEALHNHYTQKSLSLSLGGGGGAGGGGAGGGGADSSPLLQFGGQVRQRYLYTDDAQQTEAHLEIREDGTVGGAADQSPESLLQLKALKPGVIQILGVKTSRFLCQRPDGALYGSLHFDPEACSFRELLLEDGYNVYQSEAHGLPLHCPGNKSPHRDPAPRGPCRFLPLPGLPPALPEPPGILAPQPPDVGSSDPLAMVGPSQGRSPSYAS
B5: A175L1F8L5M3 (Fc fusion)
chain: B4 chain with D28A

molecular target: β-klotho (KLB); assay: cell-based or functional assay

Binder	FGF21 activity (EC50, nM) [nM]
B1	0.55
B2	0.79
B3	0.79
B4	0.82
B5	0.63

molecular target: GCGR; assay: cell-based or functional assay

Binder	GCGR agonist activity (EC50, nM) [nM]
B1	1.22
B2	1.2
B3	1.2
B4	41.2
B5	39.2

molecular target: human GLP-1R (human, UniProt P43220 24-463); assay: cell-based or functional assay

Binder	GLP-1R agonist activity (EC50, nM) [nM]
B1	1.34
B2	1.13
B3	1.13
B4	59.1
B5	47.1
